Tests used:
[1] = of the fluorescence efficiency of fluorescein; cited from earlier work
[2] = Optical biodistribution (ADME profile) in MatBIII orthotopic tumor model; format: in vivo, rat; conditions: for Biodistribution, Bladder / Biodistribution, Blood / Biodistribution, Eye / Biodistribution, Kidney / Biodistribution, Liver / Biodistribution, Skin / Biodistribution, Spleen / Biodistribution, Tumor: MatBIII tumor-bearing rats, 125 nmol/kg
Method: (§1) In vivo studies were carried out with female Fischer 344 rats or severe combined immunodeficient (SCID) mice, each with an age between 4 and 8 weeks. Animals were housed with non-fluorescent food (Harlan Labs, cat. #TD.97184) and water ad libitum and a standard 12 hour day-night lighting cycle. 1×10^6 cells (100 μL) were injected, using a 27 gauge needle, directly orthotopically into the mammary fat pad of the animal. After allowing 7 days for MatBIII tumor growth (˜1 cm in diameter), animals were injected with test agent and imaged.
The ADME profile of Compound 1 was studied by performing optical biodistribution studies in the MatB III in vivo orthotopic tumor model. Thus, a dose of 125 nmol/kg (volume ˜250-300 μL) was used for the study with an equal volume of PBS used as a negative control. For naïve animals, each tissue type was split into four tubes to ensure sufficient volume for standard preparation. Tissues included blood, bladder/urine, liver, kidney, spleen, eyes, fat, muscle, tumor, and skin collected from the contralateral side from tumor. Using the supernatant from naïve samples (pooled by tissue type), standards were made by adding agent at concentrations of 75 μM, 37.5 μM, 3.75 μM, 0.375 μM and 0 μM, dilutions made with PBS. This yielded a final concentration of 20% injected dose (ID), 10%, 1%, […] and 0. To determine the amount of dye contained in each tissue type, 90 μL of sample or standard was read on a spectrophotometer at settings of 710 excitation/805 Emission.
Samples were adjusted for weight, but there was some sample-to-sample variation.

[3] = Blood clearance vs time, bi-phasic exponential decay curve fit; format: in vivo, rat; conditions: rats
MatBIII tumour model = assay: In vivo fluorescence imaging in the rat MatBIII tumour model; conditions: fluorescence image 1 hour after iv injection, FIG. 2
Method: as §1
Compound 1 was studied in the MatBIII model described in Example 3. The dose was either 125 or 250 nmol dye/kg body weight. The fluorescence imaging system was comprised of a 12 bit cooled CCD camera (Hamamatsu ORCA), and with a 735 laser source providing the excitation light. The fluorescence signal was filtered with a band pass emission filter set (810 nm centre frequency, 90 nm bandwidth). 50 ms exposure time was used with 2×2 binning.
For immobilisation during the optical imaging procedure, the animals were anaesthetized in a coaxial open mask to surgical level anaesthesia with Isoflurane (typically 2-3%) with oxygen as the carrier gas. During injection and intermediate time point imaging a lighter anaesthesia level was used. The animals were imaged from above, lying on their backs. […]

Molecule: CC1(C)C(/C=C/C=C/C=C/C=C2\N(CCCCS(=O)(=O)O)c3ccc4ccccc4c3C2(C)C)=[N+](CCCCS(=O)(=O)[O-])c2ccc3ccccc3c21 [ICG, indocyanine green]
- Fluorescence efficiency relative to fluorescein [1]: 4%

Molecule: Bis-Cy7 PEG-31k Conjugate [Compound 1]
- Retention of the agent in all of the collected tissues ([2]; 48 h post injection): < 1 % ID/g
- Biodistribution, Bladder ([2]; 2 min): 0.00 % ID/g
- Biodistribution, Blood ([2]; 2 min): 6.56 % ID/g
- Biodistribution, Eye ([2]; 2 min): 1.93 % ID/g
- Biodistribution, Kidney ([2]; 2 min): 0.12 % ID/g
- Biodistribution, Liver ([2]; 2 min): 0.24 % ID/g
- Biodistribution, Skin ([2]; 2 min): 0.00 % ID/g
- Biodistribution, Spleen ([2]; 2 min): 0.64 % ID/g
- Biodistribution, Tumor ([2]; 2 min): 0.00 % ID/g
- Biodistribution, Bladder ([2]; 5 min): 0.23 % ID/g
- Biodistribution, Blood ([2]; 5 min): 5.65 % ID/g
- Biodistribution, Eye ([2]; 5 min): 0.14 % ID/g
- Biodistribution, Kidney ([2]; 5 min): 1.35 % ID/g
- Biodistribution, Liver ([2]; 5 min): 0.46 % ID/g
- Biodistribution, Skin ([2]; 5 min): 0.56 % ID/g
- Biodistribution, Spleen ([2]; 5 min): 0.64 % ID/g
- Biodistribution, Tumor ([2]; 5 min): 0.53 % ID/g
- Biodistribution, Bladder ([2]; 10 min): 1.24 % ID/g
- Biodistribution, Blood ([2]; 10 min): 4.26 % ID/g
- Biodistribution, Eye ([2]; 10 min): 1.70 % ID/g
- Biodistribution, Kidney ([2]; 10 min): 0.41 % ID/g
- Biodistribution, Liver ([2]; 10 min): 0.03 % ID/g
- Biodistribution, Skin ([2]; 10 min): 0.00 % ID/g
- Biodistribution, Spleen ([2]; 10 min): 1.00 % ID/g
- Biodistribution, Tumor ([2]; 10 min): 0.00 % ID/g
- Biodistribution, Bladder ([2]; 60 min): 0.86 % ID/g
- Biodistribution, Blood ([2]; 60 min): 3.05 % ID/g
- Biodistribution, Eye ([2]; 60 min): 0.33 % ID/g
- Biodistribution, Kidney ([2]; 60 min): 0.51 % ID/g
- Biodistribution, Liver ([2]; 60 min): 1.02 % ID/g
- Biodistribution, Skin ([2]; 60 min): 0.05 % ID/g
- Biodistribution, Spleen ([2]; 60 min): 0.28 % ID/g
- Biodistribution, Tumor ([2]; 60 min): 0.00 % ID/g
- Biodistribution, Bladder ([2]; 180 min): 0.00 % ID/g
- Biodistribution, Blood ([2]; 180 min): 2.19 % ID/g
- Biodistribution, Eye ([2]; 180 min): 0.12 % ID/g
- Biodistribution, Kidney ([2]; 180 min): 0.63 % ID/g
- Biodistribution, Liver ([2]; 180 min): 2.04 % ID/g
- Biodistribution, Skin ([2]; 180 min): 0.06 % ID/g
- Biodistribution, Spleen ([2]; 180 min): 0.32 % ID/g
- Biodistribution, Tumor ([2]; 180 min): 0.05 % ID/g
- Biodistribution, Bladder ([2]; 2880 min): 0.00 % ID/g
- Biodistribution, Blood ([2]; 2880 min): 0.02 % ID/g
- Biodistribution, Eye ([2]; 2880 min): 0.44 % ID/g
- Biodistribution, Kidney ([2]; 2880 min): 0.00 % ID/g
- Biodistribution, Liver ([2]; 2880 min): 0.23 % ID/g
- Biodistribution, Skin ([2]; 2880 min): 0.00 % ID/g
- Biodistribution, Spleen ([2]; 2880 min): 0.00 % ID/g
- Biodistribution, Tumor ([2]; 2880 min): 0.61 % ID/g
- Blood half-life t1/2α [3]: 4.6 min
- Blood half-life t1/2β [3]: 4.33 h
- Image contrast of blood vessels and blood-rich tumour (MatBIII tumour model): positive image contrast

Reference: patent publication US20130331690A1, “VASCULAR IMAGING AGENTS” (GE HEALTHCARE AS, priority 2010, published 2013)
